Results taken from patent US20260242478A1 (published 2026).
Where no end group is shown, it is not given here.

Experiments:
[1] = molecular target: T1, Anti-PSMA Fab (SEQ ID NOs: 19, 20); assay: phage binding ELISA; biotinylated Fab on neutravidin plate, anti-M13 HRP detection
T1 construct: Biotinylated and captured on neutravidin coated plates in the phage ELISA; also called 006 PSMA Fab
Procedure: (§1) Clonal phage were harvested as crude supernatants and screened via standard ELISAs. […] Prior to the addition of clonal phage. wells were incubated with blocking buffer and PSMA antigen or blocking buffer alone. Without washing or aspirating, clonal phage supernatants were then added to the wells and incubated for a short time. Wells were then washed followed by detection of bound phage using a horse radish conjugated anti-M13 antibody.

[2] = molecular target: T1, Anti-PSMA Fab (SEQ ID NOs: 19, 20); assay: phage binding ELISA on captured Fab; competitor PSMA antigen pre-incubated in the wells
Procedure: as §1

[3] = molecular target: T2, Anti-PSMA Fab (SEQ ID NOs: 19, 20); assay: phage binding ELISA; PSMA Fab coated wells pre-incubated with PSMA antigen as competitor, anti-M13 HRP detection
T2 construct: also called 006 PSMA Fab
Procedure: as §1

[4] = molecular target: T2, Anti-PSMA Fab (SEQ ID NOs: 19, 20); assay: phage binding ELISA; biotinylated PSMA Fab on neutravidin plate, clonal phage supernatant, anti-M13 HRP detection;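 also: wells were preincubated with blocking buffer either containing PSMA antigen or without it before crude phage supernatant was added, briefly incubated, then washed prior to detection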
Procedure: as §1

[5] = molecular target: T3, Anti-PSMA Fab (SEQ ID NOs: 19, 20); assay: phage binding ELISA on captured anti-PSMA Fab; competitor: PSMA antigen
T3 construct: In the phage ELISA the Fab was biotinylated and captured on neutravidin coated plates; also called 006 PSMA Fab
Procedure: as §1

[6] = molecular target: T3, Anti-PSMA Fab (SEQ ID NOs: 19, 20); assay: phage binding ELISA; clonal phage on biotinylated anti-PSMA Fab captured on neutravidin, anti-M13 HRP detection
Procedure: as §1

Binder	Anti-PSMA Fab (SEQ ID NOs: 19, 20) signal [1]	Anti-PSMA Fab signal in the presence of PSMA [2]	Anti-PSMA Fab signal in the presence of PSMA [5]	Anti-PSMA Fab (SEQ ID NOs: 19, 20) signal [6]	other results
DLKLCKPEWMCNGM (Clonal phage of the peptide-180 library, tested as crude phage supernatant; not shown: fused to pIII of the bacteriophage) [Phage-2204]	1.61	0.0815			
ESHLCIPAWMCDVQ (Clonal phage of the peptide-180 library, tested as crude phage supernatant; not shown: fused to pIII of the bacteriophage) [Phage-2193]	1.63	0.0973			
TEVRCTPPWMCLGF (tested as clonal phage supernatant) [Phage-1814]					Anti-PSMA Fab signal in the presence of PSMA [3]: 0.0981; Anti-PSMA Fab (SEQ ID NOs: 19, 20) signal [4]: 2.36
EYNWCTPRWMCKGF (Clonal phage of the peptide-180 library, tested as crude phage supernatant; not shown: fused to pIII of the bacteriophage) [Phage-2201]	1.62	0.0617			
IVVKCVPSWMCEGF (tested as clonal phage supernatant) [Phage-1812]					Anti-PSMA Fab signal in the presence of PSMA [3]: 0.102; Anti-PSMA Fab (SEQ ID NOs: 19, 20) signal [4]: 2.4
ALKLCIPFWMCEGL [Phage-1819]			0.129	2.44	
HAMWCIPAWMCENL (Clonal phage of the peptide-180 library, tested as crude phage supernatant; not shown: fused to pIII of the bacteriophage) [Phage-2194]	1.63	0.0809			
GEIWCIPAWMCNTG (Clonal phage of the peptide-180 library, tested as crude phage supernatant; not shown: fused to pIII of the bacteriophage) [Phage-2200]	1.62	0.0549			
ISKLCTPPWMCEML [Phage-1825]			0.0582	2.33	
TVAYCKPAWMCQGF (tested as clonal phage supernatant) [Phage-1813]					Anti-PSMA Fab signal in the presence of PSMA [3]: 0.108; Anti-PSMA Fab (SEQ ID NOs: 19, 20) signal [4]: 2.37
PERLCTPPWMCLGF [Phage-1817]			0.0917	2.24	
LEKWCIPSWMCDGM (Clonal phage of the peptide-180 library, tested as crude phage supernatant; not shown: fused to pIII of the bacteriophage) [Phage-2197]	1.62	0.0637			
TEIRCTPQWMCLGF [Phage-1823]			0.0871	2.37	
IVKRCEPMWMCAGF (cysteine pairing not given here; also: displayed on phage as pIII fusion, pIII sequence and linker not given here) [Phage-1821]			0.264	2.38	
HDKWCIPEWMCISL (Clonal phage of the peptide-180 library, tested as crude phage supernatant; not shown: fused to pIII of the bacteriophage) [Phage-2202]	1.62	0.075			
MDKWCTPPWMCDWL [Phage-1829]			0.136	2.3	

Binder	Anti-PSMA Fab (SEQ ID NOs: 19, 20) signal [1]	Anti-PSMA Fab signal in the presence of PSMA [2]	Anti-PSMA Fab signal in the presence of PSMA [5]	Anti-PSMA Fab (SEQ ID NOs: 19, 20) signal [6]	other results
MERWCVPDWMCATF (cysteine pairing not given here; also: displayed on phage as pIII fusion, pIII sequence and linker not given here) [Phage-1818]			0.0578	2.47	
VEKMCRPAWMCWVM [Phage-1824]			0.214	2.37	
DVNWCTPPWMCWGF (Clonal phage of the peptide-180 library, tested as crude phage supernatant; not shown: fused to pIII of the bacteriophage) [Phage-2198]	1.62	0.0743			
EPKWCTPAWMCEWM [Phage-1830]			0.0904	2.29	
VLKLCVPPWMCMAQ [Phage-1827]			0.0968	2.32	
VLKYCIPDWMCAGI (tested as clonal phage supernatant) [Phage-1816]					Anti-PSMA Fab signal in the presence of PSMA [3]: 0.0978; Anti-PSMA Fab (SEQ ID NOs: 19, 20) signal [4]: 2.24
LADWCRPVWMCEGF (Clonal phage of the peptide-180 library, tested as crude phage supernatant; not shown: fused to pIII of the bacteriophage) [Phage-2196]	1.62	0.287			
WENWCQPAWMCTGL [Phage-1826]			0.0691	2.33	
WENWCTPAWMCVGF [Phage-1822]			0.0932	2.37	
MTPWCKPAWMCQGI (Clonal phage of the peptide-180 library, tested as crude phage supernatant; not shown: fused to pIII of the bacteriophage) [Phage-2192]	1.63	0.0994			
MERWCIPEWMCERT (Clonal phage of the peptide-180 library, tested as crude phage supernatant; not shown: fused to pIII of the bacteriophage) [Phage-2203]	1.61	0.072			
MDNWCTPEWMCLGF [Phage-1828]			0.065	2.3	
MVKWCTPAWMCEML [Phage-1820]			0.113	2.41	
VEKWCIPSWMCQEL (Clonal phage of the peptide-180 library, tested as crude phage supernatant; not shown: fused to pIII of the bacteriophage) [Phage-2199]	1.62	0.0642			
VERLCTPAWMCHGF (tested as clonal phage supernatant) [Phage-1815]					Anti-PSMA Fab signal in the presence of PSMA [3]: 0.214; Anti-PSMA Fab (SEQ ID NOs: 19, 20) signal [4]: 2.36
LYKWCMPAWMCEQK (Clonal phage of the peptide-180 library, tested as crude phage supernatant; not shown: fused to pIII of the bacteriophage) [Phage-2195]	1.62	0.0702			
